Test results taken from PMC13694701 (2026).

Key:
TRIM62 = TRIM62 (Homo sapiens, UniProt Q9BVG3); experiment: MST
TRIM62 PRY-SPRY = TRIM62 PRY-SPRY (Homo sapiens, UniProt Q9BVG3); experiment: MST
Sequence of TRIM62 PRY-SPRY (Q9BVG3 277-475): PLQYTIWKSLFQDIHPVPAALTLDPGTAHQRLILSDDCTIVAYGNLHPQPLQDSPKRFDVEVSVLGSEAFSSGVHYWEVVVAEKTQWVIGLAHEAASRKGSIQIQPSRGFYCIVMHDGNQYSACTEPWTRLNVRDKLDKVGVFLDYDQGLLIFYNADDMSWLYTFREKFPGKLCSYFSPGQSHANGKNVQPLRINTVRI

Sequence of TRIM62 (Q9BVG3 whole entry): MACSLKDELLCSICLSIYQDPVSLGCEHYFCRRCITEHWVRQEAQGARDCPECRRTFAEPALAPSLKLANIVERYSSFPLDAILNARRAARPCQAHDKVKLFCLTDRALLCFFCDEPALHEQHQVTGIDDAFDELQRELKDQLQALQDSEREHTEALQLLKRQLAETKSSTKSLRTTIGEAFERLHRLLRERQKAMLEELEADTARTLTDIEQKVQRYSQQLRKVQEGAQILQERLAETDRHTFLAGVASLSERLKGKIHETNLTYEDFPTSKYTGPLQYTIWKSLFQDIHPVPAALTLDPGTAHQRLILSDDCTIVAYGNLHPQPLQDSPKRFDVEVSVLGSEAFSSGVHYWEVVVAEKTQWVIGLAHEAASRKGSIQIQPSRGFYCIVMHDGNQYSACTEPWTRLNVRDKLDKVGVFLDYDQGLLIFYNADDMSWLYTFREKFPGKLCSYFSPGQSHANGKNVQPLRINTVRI

- Kd (TRIM62): 0.4 µM
- Kd (TRIM62 PRY-SPRY): 44.9 µM
B1: FAM21 1-356 (protein)
chain: MMNRTTPDQELVPASEPVWERPWSVEEIRRSSQSWSLAADAGLLQFLQEFSQQTISRTHEIKKQVDGLIRETKATDCRLHNVFNDFLMLSNTQFIENRVYDEEVEEPVLKAEAEKTEQEKTREQKEVDLIPKVQEAVNYGLQVLDSAFEQLDIKAGNSDSEEDDANGRVELILEPKDLYIDRPLPYLIGSKLFMEQEDVGLGELSSEEGSVGSDRGSIVDTEEEKEEEESDEDFAHHSDNEQNQHTTQMSDEEEDDDGCDLFADSEKEEEDIEDIEENTRPKRSRPTSFADELAARIKGDAMGRVDEEPTTLPSGEAKPRKTLKEKKERRTPSDDEEDNLFAPPKLTDEDFSPFGS
